In assay [1] the target is human CSF-1R, full length, on cells (human) (UniProt P07333). Nature of the assay: displacement of 1.5 nM ^125I-H27K15 (competitor) on EL4-CSF-1R cells, Cheng-Prusoff.
Assay [2] has the same target. The assay is described as follows: displacement of 1.5 nM ^125I-H27K15 (competitor) on EL4-CSF-1R cells.
Assay [3] has the same target. Nature of the assay: displacement of ^125I-H27K15 on EL4-CSF-1R cells.
The target in assay [4] is CSF-1R20-512-Fc (R&D Systems cat. 329-MR) (human) (UniProt P07333). Nature of the assay: competition ELISA, co-incubation: coated Fc-D1-D5 human CSF-1R, mAb and biotinylated CSF-1(1-444) together 1 hour; streptavidin-HRP. Background: An ELISA detects its analyte on a solid surface through an enzyme-linked reagent.
Assay [5] has the same target. Nature of the assay: competition ELISA, post-incubation: coated Fc-D1-D5 human CSF-1R, biotinylated CSF-1(1-444) 1 hour, then mAb 1 hour; streptavidin-HRP.
For assay [6] the target is unchanged. Nature of the assay: competition ELISA with biotinylated CSF-1(1-444) on coated CSF-1R-Fc, saturation doses, pre-, co- or post-incubation.
The target is the same in assay [7]. Nature of the assay: competition ELISA, pre-incubation: coated Fc-D1-D5 human CSF-1R, mAb 1 hour, then biotinylated CSF-1(1-444) 1 hour; streptavidin-HRP.

Consider two substances from patent US20170002081A1.

One may read the Ki as the equilibrium dissociation constant of an inhibitor or competing ligand from its target. Lower therefore signals a stronger hold on the target. Usually IC50 stands for the concentration at which inhibition is half-maximal.

For the substance “mAb JF14 (murine IgG1, Santa Cruz sc-80174) (antibody)”, the Ki in assay [1] is 1.78 nM; in assay [3], > 1 nM. In assay [2], this substance yielded an IC50 of 3.02 nM.

“mAb 3291 (murine IgG1, clone 61701, R&D Systems MAB3291) (antibody)”: the IC50 (read off the curve) in assay [4] is 1 µg/mL; in assay [5] it was 0.6 µg/mL; in assay [7], 0.5 µg/mL. Moreover, the Ki is 1.28 nM in assay [1] and > 1 nM in assay [3]. This substance returned an IC50 in assay [2] of 2.18 nM. In addition, the decrease of the CSF-1 binding to CSF-1R (%) in assay [6] was in the range of 30 to 40%.
